Assays:
[1] = target: WDR5 F266A (isothermal calorimetry) (UniProt P61964 1-334, F266A); experiment: ITC
[2] = target: WDR5 (wild type, isothermal calorimetry) (UniProt P61964 1-334); experiment: ITC

| Kd [1] | Kd [2] | Binder |
| --- | --- | --- |
| 34.7 µM | 31.1 µM | ARTKQTARKS [H3(1-10)] |
| 0.6 µM | 0.97 µM | GSARAEVHLRKSAFDMFNFLASKHRQPPEYNPNDEEEEEVQ [MLL1(3762-3802)] |

Source: PMC3921674 (2014)
